Experiments:
murine IL-11 (mouse) [1] = target: murine IL-11 (mouse) (UniProt P47873); assay: SPR (Biacore), antibody captured, IL-11 at single concentration 200 nM
human IL-11 (human) [2] = target: human IL-11 (human) (UniProt P20809); assay: as above
human IL-11 (human) [3] = target: human IL-11 (human) (UniProt P20809); assay: Tri-complex ELISA, hIL-11 + mIL-11Ra-Fc + hgp130-Fc, inhibition of complex formation
murine IL-11 (mouse) [4] = target: murine IL-11 (mouse) (UniProt P47873); assay: cell-based or functional assay
human IL-11 (human) [5] = target: human IL-11 (human) (UniProt P20809); assay: cell-based or functional assay
murine IL-11 (mouse) [6] = target: murine IL-11 (mouse) (UniProt P47873); assay: Tri-complex ELISA, mIL-11 + mIL-11Ra-Fc + mgp130-Fc, inhibition of complex formation
murine IL-11 (mouse) [7] = target: murine IL-11 (mouse) (UniProt P47873); assay: Di-complex ELISA, canine IL11RA-hFc binding to immobilized mIL-11, competition
human IL-11 (human) [8] = target: human IL-11 (human) (UniProt P20809); assay: Di-complex ELISA, canine IL11RA-hFc binding to immobilized hIL-11, competition
[9] = target: IL-11 [218-IL from R&D Systems, Inc.] (human) (UniProt P20809); assay: cell-based or functional assay
Chain of IL-11 [218-IL from R&D Systems, Inc.] (human) (P20809 22-199 limits assumed): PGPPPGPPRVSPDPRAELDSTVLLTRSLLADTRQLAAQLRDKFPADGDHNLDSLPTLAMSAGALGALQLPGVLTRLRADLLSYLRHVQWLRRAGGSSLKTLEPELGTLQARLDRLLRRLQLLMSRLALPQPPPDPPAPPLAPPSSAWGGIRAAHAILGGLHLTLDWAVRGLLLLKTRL

[10] = target: murine IL-11 (Invigate, e.g., lot #C210819-09) (mouse) (UniProt P47873); assay: Tri-complex ELISA: antibody titrated against 8 nM murine IL-11, 2 nM murine gp130-human-Fc and 2 nM murine IL11RA-murine-Fc
Chain of murine IL-11 (Invigate, e.g., lot #C210819-09) (mouse) (P47873 22-199): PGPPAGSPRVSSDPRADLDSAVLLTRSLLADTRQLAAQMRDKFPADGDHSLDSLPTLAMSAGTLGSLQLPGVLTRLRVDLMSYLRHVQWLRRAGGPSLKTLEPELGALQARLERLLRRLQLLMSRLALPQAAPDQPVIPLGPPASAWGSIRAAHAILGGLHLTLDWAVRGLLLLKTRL

[11] = target: murine IL-11 (Invigate, e.g., lot #C210819-09) (mouse) (UniProt P47873); assay: cell-based or functional assay
[12] = target: human IL-11 (Invigate, e.g., lot #C121021-19) (human) (UniProt P20809); assay: cell-based or functional assay
Chain of human IL-11 (Invigate, e.g., lot #C121021-19) (human) (P20809 22-199): as the sequence (P20809 22-199 limits assumed) above

[13] = target: human IL-11 (Invigate, e.g., lot #C121021-19) (human) (UniProt P20809); assay: Tri-complex ELISA: antibody titrated against 8 nM human IL-11, 2 nM human gp130-human-Fc and 2 nM murine IL11RA-murine-Fc
[14] = target: human IL-11 (Invigate, e.g., lot #C121021-19) (human) (UniProt P20809); assay: Di-complex ELISA: biotinylated human IL-11 on streptavidin plate, antibody titrated against 2 nM canine IL11RA-human-Fc (competitor)
[15] = target: murine IL-11 (Invigate, e.g., lot #C210819-09) (mouse) (UniProt P47873); assay: SPR, Biacore T200, 25 C; antibody captured via anti-mouse Fc, IL-11 as analyte, 1:1 Langmuir fit
[16] = target: human IL-11 (Invigate, e.g., lot #C121021-19) (human) (UniProt P20809); assay: as above
[17] = target: murine IL-11 (Invigate, e.g., lot #C210819-09) (mouse) (UniProt P47873); assay: Di-complex ELISA: biotinylated murine IL-11 on streptavidin plate, antibody titrated against 2 nM canine IL11RA-human-Fc (competitor)

Chain of human IL-11 (human) (P20809 22-199): as the sequence (P20809 22-199 limits assumed) above
Chain of murine IL-11 (mouse) (P47873 22-199): as the sequence (P47873 22-199) above

| Substance | Kd (murine IL-11 (mouse) [1]) | Kd (human IL-11 (human) [2]) | Efficacy (%) (human IL-11 (human) [3]) | IC50 (human IL-11 (human) [3]) | Efficacy (%), Stat3 reporter gene assay (murine IL-11 (mouse) [4]) | Efficacy (%), Stat3 reporter gene assay (human IL-11 (human) [5]) | Efficacy (%) (murine IL-11 (mouse) [6]) | IC50 (murine IL-11 (mouse) [6]) | Efficacy (%) (murine IL-11 (mouse) [7]) | IC50 (murine IL-11 (mouse) [7]) | Efficacy (%) (human IL-11 (human) [8]) | IC50 (human IL-11 (human) [8]) | IC50, Stat3 reporter gene assay (murine IL-11 (mouse) [4]) | further results |
| --- | --- | --- | --- | --- | --- | --- | --- | --- | --- | --- | --- | --- | --- | --- |
| GTX52814 (antibody) | 2 nM | 3.3 nM | 36.9% | 14 nM | 75.5% | 5.1% | 106% | 17 nM | 89.9% | 4.7 nM | 74.9% | 1.9 nM | – | – |
| IL-11 function blocking polyclonal antibody AF-418-NA (R&D Systems, Inc.) | – | – | – | – | – | – | – | – | – | – | – | – | – | secretion of VEGF-A, primary human fibroid slice assay (ng/mg protein) [9]: 17.3 |
| LS-C104441 (antibody) | 2.2 nM | 3.9 nM | 65.6% | 20 nM | 88% | 42.6% | 98.4% | 3.8 nM | 91.2% | 3.5 nM | 71.5% | 5.3 nM | 3.9 nM | – |
| TPP-14250 (R&D Systems, #MAB218) (antibody) | – | – | – | – | – | – | – | – | – | – | – | – | – | Efficacy (%) [10]: 60.9%; IC50 [10]: 17 nM; Efficacy (%), Stat3 reporter gene assay, mouse Il11ra, 3.13 nM mIL-11 [11]: 69.1%; IC50 [M], Stat3 reporter gene assay, HEK 293F transfected with mouse Il11ra, 3.13 nM mIL-11 [11]: 1.42e-07 M; Efficacy (%), Stat3 reporter gene assay, human IL11RA, 0.78 nM hIL-11 [12]: 27.1%; IC50 [M], Stat3 reporter gene assay, HEK 293F transfected with human IL11RA, 0.78 nM hIL-11 [12]: 2.41e-10 M; Efficacy (%) [13]: 67.2%; IC50 [13]: 38 nM; Efficacy (%) [14]: 67.2%; IC50 [14]: 7.4 nM; Kd [15]: 3.8 nM; Kd [16]: 19 nM; Efficacy (%) [17]: 92.3%; IC50 [17]: 1.3 nM |

The next lines start with results.

| Kd (murine IL-11 (mouse) [1]) | Kd (human IL-11 (human) [2]) | Efficacy (%) (human IL-11 (human) [3]) | IC50 (human IL-11 (human) [3]) | Efficacy (%), Stat3 reporter gene assay (murine IL-11 (mouse) [4]) | Efficacy (%), Stat3 reporter gene assay (human IL-11 (human) [5]) | Efficacy (%) (murine IL-11 (mouse) [6]) | IC50 (murine IL-11 (mouse) [6]) | Efficacy (%) (murine IL-11 (mouse) [7]) | IC50 (murine IL-11 (mouse) [7]) | Efficacy (%) (human IL-11 (human) [8]) | IC50 (human IL-11 (human) [8]) | IC50, Stat3 reporter gene assay (murine IL-11 (mouse) [4]) | Substance | further results |
| --- | --- | --- | --- | --- | --- | --- | --- | --- | --- | --- | --- | --- | --- | --- |
| 6.2 nM | 6.3 nM | 78.5% | 10 nM | 88.3% | 52.7% | 90.3% | 6.6 nM | 96.2% | 6.5 nM | 90.1% | 10 nM | 5.6 nM | LS-C193526 (antibody) | IC50, Stat3 reporter gene assay (human IL-11 (human) [5]): 50 nM |
| 2 nM | 3.6 nM | 34.1% | 19 nM | 47.6% | 19.9% | 62.3% | – | 70.5% | 29 nM | 51.1% | 60 nM | – | MA5-23711 (antibody) | – |

Reference: patent US20240317847A1
